# Measurements as given in paper PMC11330416.
# Experiments:
# [1] = molecular target: biotinylated human angiotensin-converting enzyme 2 reference material ACE2-1 (human) (UniProt Q9BYF1); experiment: SPR; ACE2-1 immobilised by its biotin on streptavidin on a biotin-coated Au chip (250-300 RU), blocked with 10 uM BSA; spike analyte in a twofold series of 12.5-200 nM at 50 uL/min, about 90 s association, 30-45 min dissociation; 10 mM HEPES pH 7-7.4, 150 mM NaCl, 3 mM EDTA, 0.05% Tween-20; 1:1 binding model; averages of two independent experiments
# Chain of biotinylated human angiotensin-converting enzyme 2 reference material ACE2-1 (human) (Q9BYF1 20-614): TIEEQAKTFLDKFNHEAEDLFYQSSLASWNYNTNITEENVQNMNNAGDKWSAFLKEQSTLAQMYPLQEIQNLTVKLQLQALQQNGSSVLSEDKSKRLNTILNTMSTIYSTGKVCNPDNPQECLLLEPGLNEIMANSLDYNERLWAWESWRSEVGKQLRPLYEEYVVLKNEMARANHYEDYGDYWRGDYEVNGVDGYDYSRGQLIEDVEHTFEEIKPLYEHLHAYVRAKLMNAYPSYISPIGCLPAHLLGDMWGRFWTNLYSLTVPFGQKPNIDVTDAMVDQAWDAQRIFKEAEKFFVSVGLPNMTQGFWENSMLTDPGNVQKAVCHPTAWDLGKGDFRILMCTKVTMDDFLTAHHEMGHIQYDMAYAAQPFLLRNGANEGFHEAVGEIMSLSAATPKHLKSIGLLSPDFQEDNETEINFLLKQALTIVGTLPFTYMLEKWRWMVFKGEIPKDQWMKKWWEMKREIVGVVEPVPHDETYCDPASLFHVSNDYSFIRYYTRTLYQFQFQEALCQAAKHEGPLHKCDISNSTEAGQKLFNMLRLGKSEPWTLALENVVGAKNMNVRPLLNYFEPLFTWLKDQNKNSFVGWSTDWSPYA
# [2] = molecular target: NRC SARS-CoV-2 (reference strain) spike protein reference material SMT1-1 (SARS-CoV-2 (reference strain, Wuhan-Hu-1)); experiment: SEC-MALS; Waters BEH SEC 4.6 x 150 mm column (200 A for ACE2-1, 450 A for OMIC-1), DPBS with 0.02% Tween-20, pH 7.4, 0.4 mL/min; UV at 280 nm, MALS and RI detection; relative amounts of species from SEC-UV
substance,measurement,setting,value
NRC SARS-CoV-2 (reference strain) spike protein reference material SMT1-1,Kd,[1],17.1 nM
same,koff,[1],0.0018 s⁻¹
same,kon,[1],110000 M⁻¹ s⁻¹
same,stoichiometry N,[2],3
